Source: patent US12582683B2, “Prostate neoantigens and their uses” (Jansen Biotech, Inc., priority 2019, dated 2026)

Legend:
[1] = target: HLA-A*01:01 (Homo sapiens, UniProt P04439, A114D/A174V/A182V/D101N/D185E/E176A/E190D/L180R/Q94H/R68K/S129P/T187R/V100A/V91M/W191G); test: In vitro binding of neoantigens to class I MHC (UV peptide exchange, HLA class I ELISA); conditions: 100% = same binding affinity as positive control peptide
Experimental: (§1) In Vitro Binding of Neoantigens to Class I MHC
(§2) The 9 mer peptides identified by bioinformatics analysis were analyzed for their binding propensities to 6 common HLA class I alleles (HLA-A*01:01, A*02:01, A*03:01, A*24:02, B*07:02, B*08:01). The principle of the method is briefly described below and consists of two parts, one involving exchange of peptide with a positive control induced by Ultraviolet (UV) radiation, and the second is an enzyme immunoassay to detect stable HLA-peptide and empty HLA complexes.
(§3) HLA-bound peptides are critical for the stability of the HLA complex.
(§4) The exchange efficiency between the peptide of interest and Pos was analyzed using an HLA class I ELISA. The combined technologies allowed the identification of ligands for an HLA molecule of interest which are potentially immunogenic.
(§5) The UV control represented UV-irradiation of conditional HLA class I complex in the absence of a rescue peptide. […] To this end streptavidin was bound onto polystyrene microtiter wells. After washing and blocking, HLA complex present in exchange reaction mixtures or ELISA controls was captured by the streptavidin on the microtiter plate via its biotinylated heavy chain. Non-bound material was removed by washing. Subsequently, horseradish peroxidase (HRP)-conjugated antibody to human B2M was added. […] In the latter case B2M was removed during the washing step. After removal of non-bound HRP conjugate by washing, a substrate solution was added to the wells. A coloured product formed in proportion to the amount of intact HLA complex present in the samples. After the reaction was terminated by the addition of a stop solution, absorbance was measured in a microtiter plate reader. […] Suboptimal HLA binding of peptides with a moderate to low affinity for HLA class I molecules can also be detected by this ELISA technique (Rodenko, B et al. (2006) Nature Protocols 1: 1120-32).
(§6) Binding of select neoepitopes to HLA-A*01:01, HLA-A* 02:01, HLA-A* 03:01, HLA-A*24:02, HLA-1B*07:02 and HLA-1B*08:01 was evaluated using the assay described in Example 1. […] As a criterion for further evaluation, peptides with an exchange rate of at least 10% with the corresponding Pos peptide for at least one of the 6 HLA alleles that we considered for further evaluation. […] Higher percentages correspond to stronger binding to the HLA allele.

[2] = target: HLA-B*07:02 (Homo sapiens, UniProt P01889); test: as above; conditions: 100% = same binding affinity as positive control peptide
Experimental: as §1, §2, §3, §4, §5, §6

[3] = target: HLA-A*24:02 (Homo sapiens, UniProt P04439, D101N/D140Y/D185E/E176V/E190D/F33S/G103R/G107R/I119L/I121M/I306V/K335N/L105A/L180Q/L300P/N151K/N90K/Q86E/Q94H/R106L/R138H/R89G/T104I/T345S/V100E/W191G/Y123F); test: as above; conditions: 100% = same binding affinity as positive control peptide
Experimental: as §1, §2, §3, §4, §5, §6

[4] = target: HLA-A*03:01 (Homo sapiens, UniProt P04439); test: as above; conditions: 100% = same binding affinity as positive control peptide
Experimental: as §1, §2, §3, §4, §5, §6

[5] = target: HLA-A*02:01 (Homo sapiens, UniProt P04439, D140Y/D185E/D98H/E176V/E277Q/G131W/G231S/I119V/I121R/I166T/I218V/L300P/L318F/N151K/N90K/P208A/P217A/Q86G/Q94H/R138H/R169H/T345S); test: as above; conditions: 100% = same binding affinity as positive control peptide
Experimental: as §1, §2, §3, §4, §5, §6

[6] = test system: CD8+ T cells in PBMCs from patients with metastatic castrate-resistant prostate cancer; test: Patient PBMC restimulation assay (in vitro immunogenicity of neoantigens); assay type: cell-based, human; parameters: Maximum frequency of TNFα+IFNγ+CD8+ T cells: unit not given here; conditions: for Maximum fold change over: fold change over negative control, highest across the PBMC donors evaluated, 9 mer peptide; for Maximum frequency of TNFα+IFNγ+CD8+ T cells: greatest frequency among all tested PBMC donors, negative control 0.011-0.8
Experimental: In Vitro Immunogenicity Assessment of Neoantigens (“Patient PBMC Restimulation Assay”)
PBMCs from human patients with metastatic castrate-resistant prostate cancer were thawed using media (RPMI 1640 supplemented with Glutamax, 10% HI FBS, and 1× Sodium Pyruvate). Cells were counted and plated in a 96 well round bottom microplate at a concentration of 250,000 viable cells per well. Lyophilized peptides were solubilized in 100% DMSO and diluted in media to 10 μg/mL. Neoantigen peptides were added in equal volume to PBMCs for a final concentration of 5 μg/mL. CEF Peptide Pool “Plus” (Cellular Technologies, Ltd.) was utilized as a positive control and DMSO at the same final concentration as the experimental peptides was utilized as a negative control. Human IL-15 (Peprotech) was added to all wells at final concentration of 10 ng/mL.
Plates were incubated at 37° C. (5% CO2) for a total of 13 days. Media was refreshed every 2 days with IL-15 (10 ng/mL final concentration) and IL-2 (R&D systems, 10 IU/mL final concentration). On day 12, PBMCs were re-stimulated with identical experimental peptides or controls, at same concentration as peptide stimulation on Day 1. After 1-hour incubation, protein Inhibitor Cocktail (eBioscience) was added to every well and plate was incubated overnight.
On day 13, cells were stained for intracellular flow cytometry analysis. The cells were washed with PBS and stained with Live/Dead Fixable Aqua Dead Cell stain (Thermo-Fisher). Following the live/dead stain, cells were blocked using Biotin-Free Fe Receptor Blocker (Accurate Chemical & Scientific Corp). Extracellular cellular flow panel (1 μL/antibody per well in 50 μL) consisted of CD3 PerCP-Cy5.5 (Biolegend), CD4 BV421 (Biolegend), and CD8 APC-Cy7 (Biolegend). After extracellular staining, cells were fixed using Foxp3/Transcription Factor Staining Buffer Set (eBioscience) and stained for intracellular proteins (1:50 dilution) using TNFα FITC (R&D Systems) and IFNγ BV785 (Biolegend). Cells were washed and resuspended in stain buffer and analyzed using a BD Celesta flow cytometer.
Flow cytometry cell staining analysis was completed using FlowJo v10. Cells were gated on live, singlet, CD3+ cells. The CD8+ T cells were analyzed for TNFα/IFNγ expression and the frequency of double positive TNFα/IFNγ CD8+ T cells was recorded. Responses were assessed to be positive when the frequency of double positive TNFα/IFNγ CD8+ T cells due to stimulation with an experimental peptide was increased greater than or equal to 2-fold over the DMSO only negative control for that patient. Peptides were analyzed in 1 to 7 patient samples.
The 9 mer fragments shown in Table 13 were assessed for their ability to activate T cells using the Patient PBMC restimulation assay described in Example 1 using TNFα and IFNγ production by CD8^+ T cells as a readout. Self-antigens shown in Table 15 were also used in the assays. […] PBMCs from ten patients were evaluated.

DSSGNLLERNSFEVRV (listed as Homo sapiens) [Neoantigen P73, TP53 (G266E)]
Exchange rate with Pos peptide, HLA-A*01:01 [1]: 2.1% | Exchange rate with Pos peptide, HLA-B*07:02 [2]: 8.7% | Exchange rate with Pos peptide, HLA-A*24:02 [3]: 0.5% | Exchange rate with Pos peptide, HLA-A*03:01 [4]: 3.5% | Exchange rate with Pos peptide, HLA-A*02:01 [5]: 89.2% | Maximum fold change over [6]: 2.97 | Maximum frequency of TNFα+IFNγ+CD8+ T cells [6]: 0.110

VQPIARELYQFTFDLLI (listed as Homo sapiens) [Neoantigen P48, AR.p.H875Y]
Exchange rate with Pos peptide, HLA-A*01:01 [1]: 4.3% | Exchange rate with Pos peptide, HLA-B*07:02 [2]: 12.8% | Exchange rate with Pos peptide, HLA-A*24:02 [3]: 0.1% | Exchange rate with Pos peptide, HLA-A*03:01 [4]: 4.4% | Exchange rate with Pos peptide, HLA-A*02:01 [5]: 99.3% | Maximum fold change over [6]: 2.33 | Maximum frequency of TNFα+IFNγ+CD8+ T cells [6]: 0.220

DDRNTFDIVWWCPMSRLRLALTVPPSTTTTCVTVPAWAA [P46] (listed as Homo sapiens) [Neoantigen P46, TP53 (R213D)]
Exchange rate with Pos peptide, HLA-B*07:02 [2]: 64.8% | Exchange rate with Pos peptide, HLA-A*24:02 [3]: −0.4% | Exchange rate with Pos peptide, HLA-A*03:01 [4]: 10.3% | Exchange rate with Pos peptide, HLA-A*02:01 [5]: 14.4% | Maximum fold change over [6]: 2.33 | Maximum frequency of TNFα+IFNγ+CD8+ T cells [6]: 0.140

PKSEVRAKCKFSILNAK (listed as Homo sapiens) [Neoantigen P56, SPOP (F102C)]
Exchange rate with Pos peptide, HLA-A*01:01 [1]: 2.6% | Exchange rate with Pos peptide, HLA-B*07:02 [2]: 82.5% | Exchange rate with Pos peptide, HLA-A*24:02 [3]: 0.5% | Exchange rate with Pos peptide, HLA-A*03:01 [4]: 6.8% | Exchange rate with Pos peptide, HLA-A*02:01 [5]: 8.4% | Maximum fold change over [6]: 11.57 | Maximum frequency of TNFα+IFNγ+CD8+ T cells [6]: 1.620

GVPGDSTRRAVRRMNTF [P17] (listed as Homo sapiens) [Neoantigen P17, MSMB-NOCA4]
Exchange rate with Pos peptide, HLA-A*01:01 [1]: 4.9% | Exchange rate with Pos peptide, HLA-B*07:02 [2]: 38.7% | Exchange rate with Pos peptide, HLA-A*24:02 [3]: 0.1% | Exchange rate with Pos peptide, HLA-A*03:01 [4]: 3.8% | Maximum frequency of TNFα+IFNγ+CD8+ T cells [6]: 0.130

CYLRRQKRLKCEKQPGA (listed as Homo sapiens) [Neoantigen P60, FOXA1.p.F266L]
Exchange rate with Pos peptide, HLA-A*01:01 [1]: 3.1% | Exchange rate with Pos peptide, HLA-B*07:02 [2]: 6.1% | Exchange rate with Pos peptide, HLA-A*24:02 [3]: 0.9% | Exchange rate with Pos peptide, HLA-A*03:01 [4]: 36.6% | Exchange rate with Pos peptide, HLA-A*02:01 [5]: 7.9% | Maximum fold change over [6]: 2.08 | Maximum frequency of TNFα+IFNγ+CD8+ T cells [6]: 0.340
